The target of assay [1] is fluorescein biotin-bearing beads (Streptomyces avidinii, UniProt P22629). Briefly: Detection of native biotin via fluorescence unquenching of fluorescein biotin in affinity micro-column. It counts as binding. The settings on record: 2 μL aliquot of 3 mM native biotin. An excerpt:
Streptavidin coated beads bearing ≈1×10^6 fluorophores/bead were packed into the micro-channel.
(§1) Ostrich quenching is dependent on the length and structure of the ligand. […] Addition of native biotin recovers the original intensity under diffusion-limited kinetics. The extent of quenching and recovery on beads depends on site occupancy of the fluorescein biotin. […] The five-fold increase in intensity was consistent with a result from a flow cytometry measurement (data not shown). […] The magnitude of n2 relative to n1 is likely due to the disruption of the packing of beads upon initial contact with the plug of sample. It is likely that such disruption can be minimized through optimization of bead packing and sample injection procedures.

In assay [2] the target is non-biotinylated fluorescent 5-FLAG peptide (soluble). Briefly: centrifugation assay, spectrofluorimetry of residual supernatants; soluble fluorescent FLAG peptide on M2-bearing beads.
In assay [3] the target is Texas-Red labeled M1 anti-FLAG monoclonal antibody (IgG). Briefly: competition: TR-M1 pre-equilibrated with thousand-fold excess soluble non-fluorescent FLAG peptide, then passed over bead-borne fluorescein FLAG peptide; FRET.
The target in assay [4] is streptavidin coated beads (Streptomyces avidinii, UniProt P22629). Briefly: Binding of biotinylated ligands to streptavidin-coated beads (centrifugation assays). The settings on record: read-out: binding affinity (Kd) to streptavidin coated beads. Here is the method: Binding analysis of biotinylated biomolecules to streptavidin-bearing beads were performed. Centrifugation assays using paired spectrofluorimetric and flow cytometric analysis were carried out to compare and corroborate the flow cytometric data against the traditional spectroflurometric measurements.
Chain of streptavidin coated beads (P22629 25-183): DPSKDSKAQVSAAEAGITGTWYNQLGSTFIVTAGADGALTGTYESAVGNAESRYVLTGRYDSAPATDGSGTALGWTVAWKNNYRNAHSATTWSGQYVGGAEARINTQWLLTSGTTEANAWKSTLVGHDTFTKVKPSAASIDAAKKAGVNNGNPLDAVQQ
The flow cytometric analysis used a Becton-Dickinson FACScan flow cytometer obtained from Sunnyvale, Calif. that interfaced to a Power PC Macintosh using the CellQuest software package. The FACScan is equipped with a 15 mW air-cooled argon ion laser. The laser output is fixed at 488 nm. It has been shown that the mean of the histogram is the quantity relevant to binding capacity. The average fluorescence of a single bead is converted to the number of fluorophores per bead on the basis of flow cytometric calibration beads obtained from Quantum 825 Flow Cytometry Standards Corporation, San Juan, PR. […] [formula]
MCFLb mean channel fluorescence are the means of the histograms of the bound ligand Lb, corrected for nonspecific binding and standard calibration beads referred to as std, observed at similar detection settings. MESF stands for mean equivalent of soluble fluorophores and is the number of fluorescein molecules whose emission intensity is equal to MCFstd on each bead.
The magnitude of bound sites per bead were determined from centrifugation assays.

The target of a further assay is streptavidin (Streptomyces avidinii, UniProt P22629). Briefly: Ostrich quenching of fluorescein biotin bound to streptavidin. It is filed as binding. The conditions noted are these: bound to excess soluble streptavidin.
Chain of streptavidin (P22629 25-183): as above
Source text: Under certain circumstances, binding of fluorescent ligands to streptavidin is characterized by the quenching of fluorescence of bound relative to free ligands. Typically, this type of quenching referred to as “ostrich quenching” occurs when the fluorophore (e.g., fluorescein) moiety of a biotinylated ligand associates with the receptor pocket adjacent to the biotin-moiety bearing site. Such a method is described in the following reference: Buranda, T., Jones, G., Nolan, J., Keij, J., Lopez, G. P., and Sklar, L. A. (1999) Ligand Receptor Dynamics at Streptavidin Coated Particle Surfaces: A Flow Cytometric and Spectrofluorimetic Study J. Phys. Chem. B. 103, 3399-3410, the entire contents and disclosure of which is hereby incorporated by reference.
as §1

Assay [5] addresses biotinylated and fluorescein-tagged 5-FLAG peptide on streptavidin-coated beads. The assay can be described thus: flow cytometry of bead-borne FLAG peptides incubated with TR-M1 mAbs, FRET quenching (FIG. 18). Background: A flow cytometer gives signals particle by particle.
For assay [6] the target is unchanged. The assay can be described thus: FRET quenching on 5-FLAG bearing beads, flow cytometry, buffer with Ca2+, sigmoidal analysis.
Assay [7] has as its target non-biotinylated fluorescent 5-FLAG peptide (soluble). Briefly: FRET titration of TR-M1 into fluorescent FLAG peptide in solution, spectrofluorimetry, 1 mM Ca2+.
Assay [8] has as its target biotinylated and fluorescein-tagged 5-FLAG peptide on streptavidin-coated beads. Briefly: FRET quenching of 5-FLAG on beads by TR-M1 (FIG. 8).
Assay [9] shares this target. The assay can be described thus: FRET quenching on 5-FLAG bearing beads, flow cytometry, calcium-free buffer, sigmoidal analysis.
Assay [10] shares this target. The assay can be described thus: affinity micro-column of fluorescein FLAG peptide beads, FRET endpoints, sigmoidal dose-response curve.
The target is the same in assay [11]. Briefly: affinity micro-column of fluorescein FLAG peptide beads, real-time FRET, kinetic model fit.
For assay [12], the target named is streptavidin on 6.2 µm streptavidin-coated beads (UniProt P22629). The assay can be described thus: centrifugation assay with spectrofluorimetry and flow cytometry; biotinylated peptide on streptavidin-coated beads (binding through biotin).
Chain of streptavidin on 6.2 µm streptavidin-coated beads (P22629 37-163 limits assumed): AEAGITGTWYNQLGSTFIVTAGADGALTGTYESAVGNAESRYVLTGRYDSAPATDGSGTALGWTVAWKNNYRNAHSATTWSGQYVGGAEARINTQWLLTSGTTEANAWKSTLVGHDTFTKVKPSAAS

pKd: −log10 of the molar value. “And” between values parts separate entries of the source, which are not always exact repeats. Equal values may be shown once. A value given as a limit tells only on which side of the number the result lay.

Chain of fluorescein biotin-bearing beads (P22629 25-183): as the sequence (P22629 25-183) above

For `O=C(O)CCCC[C@@H]1SC[C@@H]2NC(=O)N[C@@H]21` [native biotin, biotin], the “increase in intensity of fluorescein biotin-bearing beads” value in assay [1] was “fivefold”.
By pKd is commonly meant −log10 of the Kd, conventionally taken in molar units. In assay [2], “biotinylated anti-FLAG M2 IgG on streptavidin-coated beads (antibody)” gave a negative-log Kd (pKd) of 8.10.
In [3], “dark non-fluorescent FLAG peptide (soluble)” displayed an FRET signal remaining with thousand fold excess of soluble peptide of less than 10%.
In the case of “Biotinylated and fluorescein-tagged FLAG peptide (epitope DYKDDDDK) tethered to streptavidin-coated beads [5-FLAG]”, in assay [4], the negative logarithm of the Kd (pKd) is 9.52 and ~9.52.
Consider `O=C(CCCCCNC(=O)CCCC[C@@H]1SC[C@@H]2NC(=O)N[C@@H]21)NCCCCCNC(=S)Nc1ccc2c(c1)C(=O)OC21c2ccc(O)cc2Oc2cc(O)ccc21` [fluorescein biotin], for which the pKd in [4] was roughly 9.30. For the same molecule, the “quenching of the fluorescence” value at streptavidin was greater than 90%.
For orientation: koff means the rate constant with which the complex falls apart. A higher koff goes with a short-lived complex. Usually kon stands for the second-order rate constant of association. Read a high kon as fast association. Consider “Texas-Red labeled M1 anti-FLAG monoclonal antibody (IgG)”, for which the pKd is 8.40 in assay [5]; 8.40 in [6]; 8.05 in [7]; 7.43 in [9]; 8.00 in assay [10]; 7.88 in [11]. The quenching of peptide fluorescence at saturation in assay [8] was greater than 60%. In addition, the dissociation rate constant (koff) in assay [11] turned out to be 0.0012 s⁻¹. This molecule also came in with a kon in assay [11] of 90000 M⁻¹ s⁻¹.
As for “biotinylated and fluorescein-tagged 5-FLAG peptide on streptavidin-coated beads”, the negative logarithm of the Kd (pKd) in assay [12] is 9.52.

Source of the values: US20020081617A1, “Fluorescence and FRET based assays for biomolecules on beads” (priority 2000, published 2002).
